# Laboratory results from PMC3592575.
# Target: α-synuclein (α-syn) (UniProt P37840)
# Assay: self-assembly into fibrils: ThT, monomer filtration, TEM
# Conditions: reference: unphosphorylated WT α-syn (semisynthetic and recombinant); sites Y125
substance,measurement,value
α-synuclein (α-syn) (from UniProt P37840) semisynthetic pY125 α-syn,binding against the reference,same
